Experimental data from US20110207796.

What was measured:
[1] = tested on: human alpha-synuclein (wild-type, recombinant)
[2] = tested on: alpha-synuclein A30P familial mutant
[3] = tested on: alpha-synuclein A53T familial mutant
[4] = tested on: alpha-synuclein E46K familial mutant
[5] = target: beta synuclein (UniProt Q16143)
beta synuclein, sequence (Q16143 whole entry): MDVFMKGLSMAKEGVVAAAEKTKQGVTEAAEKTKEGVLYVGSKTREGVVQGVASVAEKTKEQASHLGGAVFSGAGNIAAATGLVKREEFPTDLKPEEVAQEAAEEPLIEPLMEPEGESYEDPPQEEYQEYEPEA

Polo like kinase 2 (PLK2), sequence (chain): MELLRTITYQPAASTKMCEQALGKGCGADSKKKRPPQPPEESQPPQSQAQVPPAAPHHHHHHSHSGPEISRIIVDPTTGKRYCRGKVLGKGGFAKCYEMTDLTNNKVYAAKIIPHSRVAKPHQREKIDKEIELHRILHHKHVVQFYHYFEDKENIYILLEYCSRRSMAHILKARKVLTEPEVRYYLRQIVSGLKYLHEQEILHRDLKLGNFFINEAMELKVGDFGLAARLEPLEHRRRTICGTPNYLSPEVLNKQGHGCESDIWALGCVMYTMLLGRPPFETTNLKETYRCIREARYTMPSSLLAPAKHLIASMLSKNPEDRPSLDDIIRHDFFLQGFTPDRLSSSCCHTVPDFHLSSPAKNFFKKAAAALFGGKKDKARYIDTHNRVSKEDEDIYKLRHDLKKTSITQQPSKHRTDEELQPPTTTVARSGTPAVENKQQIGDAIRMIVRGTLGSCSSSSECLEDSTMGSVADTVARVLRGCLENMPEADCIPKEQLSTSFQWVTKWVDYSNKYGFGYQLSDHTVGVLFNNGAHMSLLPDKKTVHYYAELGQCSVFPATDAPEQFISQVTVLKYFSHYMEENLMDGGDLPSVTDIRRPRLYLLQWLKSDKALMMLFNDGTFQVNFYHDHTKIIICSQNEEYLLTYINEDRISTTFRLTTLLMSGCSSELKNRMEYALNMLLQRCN

Substance	S129 phosphorylation in vitro, kinases normalized by activity units [1]	S129 phosphorylation, immunoblot (mAb 11A5), kinase:rAS 1:200 molar [1]	S87 phosphorylation, immunoblot (pAb ELADW-110), kinase:rAS 1:200 molar [1]	S129 phosphorylation, immunoblot (mAb 11A5), rank of signal [1]	phospho ser-129 in vitro, kinases normalized for molarity [1]	in vitro phosphorylation, autoradiography [2]	in vitro phosphorylation, autoradiography [3]	in vitro phosphorylation, autoradiography [4]	in vitro phosphorylation, autoradiography [5]	Fold Change in Percent Synuclein Phosphorylation (ELISA, HEK-293 overexpression) [1]	Proportion of total synuclein that is phoshorylated at ser-129 (ELISA, HEK-293 overexpression) [1]	in vitro biochemical assay, phosphorylation of synuclein [1]	in vitro kinase reaction, phosphorylation of alpha-synuclein at serine 129 [1]	in vitro phosphorylation, autoradiography [1]	phosphorylation of alpha-synuclein at S129 on co-expression in bacteria, mass spectrometry [1]
casein kinase 2 (CKII)	CKII was not detectable	Prominent signals came from GRK6, CKI, CKII and PLK2													
casein kinase I (CKI)	CKI gave a modest signal	Prominent signals came from GRK6, CKI, CKII and PLK2	A signal was detected only with CKI phosphorylation	CKI>GRK6>PLK2>GRK4>GRK5>GRK2	roughly equivalent levels of phospho ser-129 between CKI, GRK6 and PLK2										
Polo like kinase 2 (PLK2)		Prominent signals came from GRK6, CKI, CKII and PLK2		CKI>GRK6>PLK2>GRK4>GRK5>GRK2	roughly equivalent levels of phospho ser-129 between CKI, GRK6 and PLK2	the mutant alpha-synucleins were phosphorylated more at a given concentration (especially at lower concentrations) than WT	the mutant alpha-synucleins were phosphorylated more at a given concentration (especially at lower concentrations) than WT	the mutant alpha-synucleins were phosphorylated more at a given concentration (especially at lower concentrations) than WT	minimally against beta synuclein	21.2 fold	42.3%	PLK2 and PLK3 having extremely robust phosphorylation of synuclein	capable of phosphorylating alpha-synuclein specifically at serine 129 and did not phosphorylate serine 87 in vitro	PLK2 was found to be more active against wild-type alpha synuclein than beta synuclein	more than 95% phosphorylated
